Experimental data taken from the supplement of paper PMC11811203.

B1: THAP1; numbered along this chain (parent)
chain: MVQSCSAYGCKNRYDKDKPVSFHKFPLTRPSLCKEWEAAVRRKNFKPTKYSSICSEHFTPDCFKRECNNKLLKENAVPTIFLCTEPHDKKEDLLEPQEQLPPPPLPPPVSQVDAAIGLLMPPLQTPVNLSVFCDHNYTVEDTMHQRKRIHQLEQQVEKLRKKLKTAQQRCRRQERQLEKLKEVVHFQKEKDDVSERGYVILPNDYFEIVEVPA

Variants of: B1
Experiment: THAP1 transcriptional activity (GFP+/GFP- enrichment relative to wild-type constructs) (ratio to WT); higher = more THAP1 activity (PSMB5 reporter activation)
Conditions: with PSMB5 promoter-GFP reporter
Method in brief: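 Activity values are replicate-mean bright/dim read fold changes divided by the mean of wild-type synonymous constructs. They come from a human THAP1 site-saturation library (residues 2–213, each changed to all 20 amino acids) delivered by lentivirus at MOI ~0.3, in duplicate, into THAP1-knockout HEK-293T cells with mClover3 at endogenous PSMB5. BFP+ cells were sorted into GFP-dim and GFP-bright bins after five days, and variants were counted by Illumina sequencing of genomic DNA amplicons.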

| Variant | THAP1 transcriptional activity |
| --- | --- |
| Q155W | 0.376 |
| Q155S | 0.563 |
| L27H | 0.0857 |
| V112W | 0.234 |
| V209Y | 0.755 |
| V209D | 0.517 |
| C133Y | 0.913 |
| C133I | 1.29 |
| C133T | 0.872 |
| P102V | 2.39 |
| C54F | 0.105 |
| L119P | 1.08 |
| R160K | 0.689 |
| R175N | 0.379 |
| R175A | 0.506 |
| T59K | 0.423 |
| T59Q | 0.605 |
| C83R | 1.54 |
| P202G | 0.98 |
| P202I | 0.585 |
| I53T | 0.111 |
| I53Y | 0.141 |
| E140H | 0.784 |
| S51P | 0.118 |

| Variant | THAP1 transcriptional activity |
| --- | --- |
| R172H | 0.458 |
| H135V | 0.227 |
| D92A | 1.55 |
| C10W | 0.125 |
| V199G | 0.935 |
| P122Q | 0.769 |
| T48K | 0.158 |
| I116T | 1.04 |
| I116M | 0.731 |
| E35D | 0.688 |
| D17M | 1.14 |
| E210I | 1.23 |
| Q111C | 0.52 |
| Q111P | 0.993 |
| Q111D | 1.06 |
| N68F | 0.0942 |
| N68R | 0.161 |
| W36H | 0.187 |
| W36C | 0.248 |
| D113S | 0.697 |
| D113M | 0.24 |
| R29L | 0.0833 |
| R29W | 0.129 |
| Q151C | 0.782 |

| Variant | THAP1 transcriptional activity |
| --- | --- |
| V127M | 0.396 |
| F81Y | 0.214 |
| F81H | 0.525 |
| K161F | 0.232 |
| N203C | 0.834 |
| R148L | 0.312 |
| L93P | 1.58 |
| S6D | 0.163 |
| L152A | 0.28 |
| K89T | 1.3 |
| F58L | 0.121 |
| L177P | 0.192 |
| I208V | 1.2 |
| Y8N | 0.449 |
| L180M | 0.868 |
| L180A | 0.484 |
| F45S | 0.0855 |
| F45I | 0.0544 |
| D204L | 1.04 |
| D204E | 1.22 |
| Q145V | 0.59 |
| T28R | 1.03 |
| A213C | 0.884 |
| A213M | 0.984 |

| Variant | THAP1 transcriptional activity |
| --- | --- |
| K49F | 0.122 |
| H57Y | 0.115 |
| H57R | 0.183 |
| E95S | 1.02 |
| E95M | 0.897 |
| P19V | 0.213 |
| P19W | 0.162 |
| R41S | 0.809 |
| H144F | 0.637 |
| H144Q | 0.814 |
| K46V | 0.455 |
| Y198R | 0.78 |
| G117A | 0.485 |
| D191R | 1.31 |
| L94Y | 1.34 |
| E182R | 1.04 |
| Q99S | 0.884 |
| Q99I | 1.32 |
| K18W | 0.131 |
| D61V | 0.101 |
| R42Y | 0.103 |
| E56F | 0.363 |
| R171E | 0.218 |
| E153M | 0.461 |

| Variant | THAP1 transcriptional activity |
| --- | --- |
| E153S | 0.631 |
| V139S | 0.407 |
| H185G | 0.927 |
| Q176C | 0.538 |
| L201N | 0.624 |
| H23D | 0.117 |
| H23I | 0.0266 |
| G197W | 1.8 |
| T84D | 0.604 |
| C33P | 0.117 |
| V183M | 0.882 |
| E74R | 0.858 |
| K190V | 1.21 |
| K190Q | 0.807 |
| A114I | 0.238 |
| V77E | 0.259 |
| P96D | 1.15 |
| K16W | 0.208 |
| L129P | 0.79 |
| V2W | 0.109 |
| V2N | 0.157 |
| Q173E | 0.149 |
| D192H | 0.799 |
| P26I | 0.178 |

| Variant | THAP1 transcriptional activity |
| --- | --- |
| P26L | 0.104 |
| L123M | 0.859 |
| L163A | 0.118 |
| L163C | 0.422 |
| N12R | 0.172 |
| F132R | 0.942 |
| F132S | 0.452 |
| P60E | 0.745 |
| P60A | 0.758 |
| E174R | 1.48 |
| F206R | 0.87 |
| P104I | 0.946 |
| P126N | 0.551 |
| D15L | 0.298 |
| D15M | 0.419 |
| D15F | 0.272 |
| P107T | 1.04 |
| E85V | 0.702 |
| K70Y | 0.12 |
| K70T | 0.397 |
| L72E | 0.322 |
| R65Q | 0.982 |
| H87R | 1.11 |
| H87W | 1.17 |

| Variant | THAP1 transcriptional activity |
| --- | --- |
| H87P | 3.55 |
| P78L | 0.161 |
| P78F | 0.267 |
| K73F | 0.19 |
| K73T | 0.514 |
| K73E | 0.261 |
| Q168E | 0.498 |
| M120D | 1.08 |
| P86A | 0.874 |
| N128V | 0.346 |
| I200C | 0.615 |
| I200V | 1.05 |
| L71Y | 0.309 |
| S21G | 0.164 |
| S21H | 0.0793 |
| S21K | 0.0427 |
| K90M | 1.03 |
| C5Y | 0.118 |
| C67G | 0.127 |
| Q124N | 0.579 |
| N44H | 0.574 |
| K188I | 0.858 |
| K188G | 1.05 |
